Assay results reported in patent US20140087995A1 (published 2014).
Numbered stars: 1 amine (or outer) side, 2 acyl side, 3 side chain; on linkers, the order of the positions; unused ones are H or OH. Bridge positions count the residues as written; N and C are the ends. Side chains are listed from the residue outwards. Ends that are not written are not given here. * marks the point of attachment. C20 diacid = O=C(O)CCCCCCCCCCCCCCCCCCC(=O)*; γGlu = O=C(O)[C@H](CCC(=O)[*:2])N[*:1]

B1: N^ε1-[(4S)-4-carboxy-4-(19-carboxynonadecanoylamino)butanoyl]-[Arg14,Arg17,Pro21,Pro27,Pro31]-h-amylin (peptide)
peptide: K([γGlu-C20 diacid])CNTATCATQRLARFLRHSSPNFGAIPSSTPVGSNTY-NH2
modifications: disulfide 2-7; N-terminus assumed
SMILES: CC[C@H](C)[C@H](NC(=O)[C@H](C)NC(=O)CNC(=O)[C@H](Cc1ccccc1)NC(=O)[C@H](CC(N)=O)NC(=O)[C@@H]1CCCN1C(=O)[C@H](CO)NC(=O)[C@H](CO)NC(=O)[C@H](Cc1c[nH]cn1)NC(=O)[C@H](CCCNC(=N)N)NC(=O)[C@H](CC(C)C)NC(=O)[C@H](Cc1ccccc1)NC(=O)[C@H](CCCNC(=N)N)NC(=O)[C@H](C)NC(=O)[C@H](CC(C)C)NC(=O)[C@H](CCCNC(=N)N)NC(=O)[C@H](CCC(N)=O)NC(=O)[C@@H](NC(=O)[C@H](C)NC(=O)[C@@H]1CSSC[C@H](NC(=O)[C@@H](N)CCCCNC(=O)CC[C@H](NC(=O)CCCCCCCCCCCCCCCCCCC(=O)O)C(=O)O)C(=O)N[C@@H](CC(N)=O)C(=O)N[C@@H]([C@@H](C)O)C(=O)N[C@@H](C)C(=O)N[C@@H]([C@@H](C)O)C(=O)N1)[C@@H](C)O)C(=O)N1CCC[C@H]1C(=O)N[C@@H](CO)C(=O)N[C@@H](CO)C(=O)N[C@H](C(=O)N1CCC[C@H]1C(=O)N[C@H](C(=O)NCC(=O)N[C@@H](CO)C(=O)N[C@@H](CC(N)=O)C(=O)N[C@H](C(=O)N[C@@H](Cc1ccc(O)cc1)C(N)=O)[C@@H](C)O)C(C)C)[C@@H](C)O
notes: also called compound 63
B2: N^ε1-[(4S)-4-carboxy-4-(19-carboxynonadecanoylamino)butanoyl]-[Arg14,Arg17,Pro21,Pro27]-h-amylin (peptide)
peptide: K([γGlu-C20 diacid])CNTATCATQRLARFLRHSSPNFGAIPSSTNVGSNTY-NH2
modifications: disulfide 2-7; N-terminus assumed
SMILES: CC[C@H](C)[C@H](NC(=O)[C@H](C)NC(=O)CNC(=O)[C@H](Cc1ccccc1)NC(=O)[C@H](CC(N)=O)NC(=O)[C@@H]1CCCN1C(=O)[C@H](CO)NC(=O)[C@H](CO)NC(=O)[C@H](Cc1c[nH]cn1)NC(=O)[C@H](CCCNC(=N)N)NC(=O)[C@H](CC(C)C)NC(=O)[C@H](Cc1ccccc1)NC(=O)[C@H](CCCNC(=N)N)NC(=O)[C@H](C)NC(=O)[C@H](CC(C)C)NC(=O)[C@H](CCCNC(=N)N)NC(=O)[C@H](CCC(N)=O)NC(=O)[C@@H](NC(=O)[C@H](C)NC(=O)[C@@H]1CSSC[C@H](NC(=O)[C@@H](N)CCCCNC(=O)CC[C@H](NC(=O)CCCCCCCCCCCCCCCCCCC(=O)O)C(=O)O)C(=O)N[C@@H](CC(N)=O)C(=O)N[C@@H]([C@@H](C)O)C(=O)N[C@@H](C)C(=O)N[C@@H]([C@@H](C)O)C(=O)N1)[C@@H](C)O)C(=O)N1CCC[C@H]1C(=O)N[C@@H](CO)C(=O)N[C@@H](CO)C(=O)N[C@H](C(=O)N[C@@H](CC(N)=O)C(=O)N[C@H](C(=O)NCC(=O)N[C@@H](CO)C(=O)N[C@@H](CC(N)=O)C(=O)N[C@H](C(=O)N[C@@H](Cc1ccc(O)cc1)C(N)=O)[C@@H](C)O)C(C)C)[C@@H](C)O
notes: also called compound 83
B3: N^ε1-[(4S)-4-carboxy-4-(19-carboxynonadecanoylamino)butanoyl]-[Arg17,Pro21,Pro27,His34]-h-amylin (peptide)
peptide: K([γGlu-C20 diacid])CNTATCATQRLANFLRHSSPNFGAIPSSTNVGHNTY-NH2
modifications: disulfide 2-7; N-terminus assumed
SMILES: CC[C@H](C)[C@H](NC(=O)[C@H](C)NC(=O)CNC(=O)[C@H](Cc1ccccc1)NC(=O)[C@H](CC(N)=O)NC(=O)[C@@H]1CCCN1C(=O)[C@H](CO)NC(=O)[C@H](CO)NC(=O)[C@H](Cc1c[nH]cn1)NC(=O)[C@H](CCCNC(=N)N)NC(=O)[C@H](CC(C)C)NC(=O)[C@H](Cc1ccccc1)NC(=O)[C@H](CC(N)=O)NC(=O)[C@H](C)NC(=O)[C@H](CC(C)C)NC(=O)[C@H](CCCNC(=N)N)NC(=O)[C@H](CCC(N)=O)NC(=O)[C@@H](NC(=O)[C@H](C)NC(=O)[C@@H]1CSSC[C@H](NC(=O)[C@@H](N)CCCCNC(=O)CC[C@H](NC(=O)CCCCCCCCCCCCCCCCCCC(=O)O)C(=O)O)C(=O)N[C@@H](CC(N)=O)C(=O)N[C@@H]([C@@H](C)O)C(=O)N[C@@H](C)C(=O)N[C@@H]([C@@H](C)O)C(=O)N1)[C@@H](C)O)C(=O)N1CCC[C@H]1C(=O)N[C@@H](CO)C(=O)N[C@@H](CO)C(=O)N[C@H](C(=O)N[C@@H](CC(N)=O)C(=O)N[C@H](C(=O)NCC(=O)N[C@@H](Cc1c[nH]cn1)C(=O)N[C@@H](CC(N)=O)C(=O)N[C@H](C(=O)N[C@@H](Cc1ccc(O)cc1)C(N)=O)[C@@H](C)O)C(C)C)[C@@H](C)O
notes: also called compound 77
B4: N^ε1-[(4S)-4-carboxy-4-(19-carboxynonadecanoylamino)butanoyl]-[Arg14,Arg17,Pro21,Pro27,Pro34]-h-amylin (peptide)
peptide: K([γGlu-C20 diacid])CNTATCATQRLARFLRHSSPNFGAIPSSTNVGPNTY-NH2
modifications: disulfide 2-7; N-terminus assumed
SMILES: CC[C@H](C)[C@H](NC(=O)[C@H](C)NC(=O)CNC(=O)[C@H](Cc1ccccc1)NC(=O)[C@H](CC(N)=O)NC(=O)[C@@H]1CCCN1C(=O)[C@H](CO)NC(=O)[C@H](CO)NC(=O)[C@H](Cc1c[nH]cn1)NC(=O)[C@H](CCCNC(=N)N)NC(=O)[C@H](CC(C)C)NC(=O)[C@H](Cc1ccccc1)NC(=O)[C@H](CCCNC(=N)N)NC(=O)[C@H](C)NC(=O)[C@H](CC(C)C)NC(=O)[C@H](CCCNC(=N)N)NC(=O)[C@H](CCC(N)=O)NC(=O)[C@@H](NC(=O)[C@H](C)NC(=O)[C@@H]1CSSC[C@H](NC(=O)[C@@H](N)CCCCNC(=O)CC[C@H](NC(=O)CCCCCCCCCCCCCCCCCCC(=O)O)C(=O)O)C(=O)N[C@@H](CC(N)=O)C(=O)N[C@@H]([C@@H](C)O)C(=O)N[C@@H](C)C(=O)N[C@@H]([C@@H](C)O)C(=O)N1)[C@@H](C)O)C(=O)N1CCC[C@H]1C(=O)N[C@@H](CO)C(=O)N[C@@H](CO)C(=O)N[C@H](C(=O)N[C@@H](CC(N)=O)C(=O)N[C@H](C(=O)NCC(=O)N1CCC[C@H]1C(=O)N[C@@H](CC(N)=O)C(=O)N[C@H](C(=O)N[C@@H](Cc1ccc(O)cc1)C(N)=O)[C@@H](C)O)C(C)C)[C@@H](C)O
notes: also called compound 65
B5: N^ε1-[(4S)-4-carboxy-4-(19-carboxynonadecanoylamino)butanoyl]-[Arg17,Pro21,Pro27,His35]-h-amylin (peptide)
peptide: K([γGlu-C20 diacid])CNTATCATQRLANFLRHSSPNFGAIPSSTNVGSHTY-NH2
modifications: disulfide 2-7; N-terminus assumed
SMILES: CC[C@H](C)[C@H](NC(=O)[C@H](C)NC(=O)CNC(=O)[C@H](Cc1ccccc1)NC(=O)[C@H](CC(N)=O)NC(=O)[C@@H]1CCCN1C(=O)[C@H](CO)NC(=O)[C@H](CO)NC(=O)[C@H](Cc1c[nH]cn1)NC(=O)[C@H](CCCNC(=N)N)NC(=O)[C@H](CC(C)C)NC(=O)[C@H](Cc1ccccc1)NC(=O)[C@H](CC(N)=O)NC(=O)[C@H](C)NC(=O)[C@H](CC(C)C)NC(=O)[C@H](CCCNC(=N)N)NC(=O)[C@H](CCC(N)=O)NC(=O)[C@@H](NC(=O)[C@H](C)NC(=O)[C@@H]1CSSC[C@H](NC(=O)[C@@H](N)CCCCNC(=O)CC[C@H](NC(=O)CCCCCCCCCCCCCCCCCCC(=O)O)C(=O)O)C(=O)N[C@@H](CC(N)=O)C(=O)N[C@@H]([C@@H](C)O)C(=O)N[C@@H](C)C(=O)N[C@@H]([C@@H](C)O)C(=O)N1)[C@@H](C)O)C(=O)N1CCC[C@H]1C(=O)N[C@@H](CO)C(=O)N[C@@H](CO)C(=O)N[C@H](C(=O)N[C@@H](CC(N)=O)C(=O)N[C@H](C(=O)NCC(=O)N[C@@H](CO)C(=O)N[C@@H](Cc1c[nH]cn1)C(=O)N[C@H](C(=O)N[C@@H](Cc1ccc(O)cc1)C(N)=O)[C@@H](C)O)C(C)C)[C@@H](C)O
notes: also called compound 60
B6: N^ε1-[(4S)-4-carboxy-4-(19-carboxynonadecanoylamino)butanoyl]-[Arg17,Pro21,Pro27,Arg34]-h-amylin (peptide)
peptide: K([γGlu-C20 diacid])CNTATCATQRLANFLRHSSPNFGAIPSSTNVGRNTY-NH2
modifications: disulfide 2-7; N-terminus assumed
SMILES: CC[C@H](C)[C@H](NC(=O)[C@H](C)NC(=O)CNC(=O)[C@H](Cc1ccccc1)NC(=O)[C@H](CC(N)=O)NC(=O)[C@@H]1CCCN1C(=O)[C@H](CO)NC(=O)[C@H](CO)NC(=O)[C@H](Cc1c[nH]cn1)NC(=O)[C@H](CCCNC(=N)N)NC(=O)[C@H](CC(C)C)NC(=O)[C@H](Cc1ccccc1)NC(=O)[C@H](CC(N)=O)NC(=O)[C@H](C)NC(=O)[C@H](CC(C)C)NC(=O)[C@H](CCCNC(=N)N)NC(=O)[C@H](CCC(N)=O)NC(=O)[C@@H](NC(=O)[C@H](C)NC(=O)[C@@H]1CSSC[C@H](NC(=O)[C@@H](N)CCCCNC(=O)CC[C@H](NC(=O)CCCCCCCCCCCCCCCCCCC(=O)O)C(=O)O)C(=O)N[C@@H](CC(N)=O)C(=O)N[C@@H]([C@@H](C)O)C(=O)N[C@@H](C)C(=O)N[C@@H]([C@@H](C)O)C(=O)N1)[C@@H](C)O)C(=O)N1CCC[C@H]1C(=O)N[C@@H](CO)C(=O)N[C@@H](CO)C(=O)N[C@H](C(=O)N[C@@H](CC(N)=O)C(=O)N[C@H](C(=O)NCC(=O)N[C@@H](CCCNC(=N)N)C(=O)N[C@@H](CC(N)=O)C(=O)N[C@H](C(=O)N[C@@H](Cc1ccc(O)cc1)C(N)=O)[C@@H](C)O)C(C)C)[C@@H](C)O
notes: also called compound 79

These binders were tested against T1, human amylin receptor (amylin 3(a) receptor: human calcitonin receptor co-expressed with RAMP-3) (human, UniProt P30988 25-474; O60896 24-148, limits assumed) (assay: cell-based or functional assay).
T1 sequence (looked up) 1: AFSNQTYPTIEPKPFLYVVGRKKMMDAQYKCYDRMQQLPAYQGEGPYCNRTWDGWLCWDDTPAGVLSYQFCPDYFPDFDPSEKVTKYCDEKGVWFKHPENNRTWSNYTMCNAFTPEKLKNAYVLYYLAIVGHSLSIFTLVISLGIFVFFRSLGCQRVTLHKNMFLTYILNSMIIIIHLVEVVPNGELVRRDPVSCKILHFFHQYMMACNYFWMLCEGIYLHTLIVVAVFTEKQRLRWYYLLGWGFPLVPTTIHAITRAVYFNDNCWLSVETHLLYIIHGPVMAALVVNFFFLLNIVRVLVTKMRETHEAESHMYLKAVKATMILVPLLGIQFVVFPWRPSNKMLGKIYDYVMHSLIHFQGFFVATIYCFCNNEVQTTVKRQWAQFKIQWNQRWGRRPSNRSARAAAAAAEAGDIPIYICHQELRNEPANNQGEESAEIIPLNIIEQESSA
T1 sequence (looked up) 2: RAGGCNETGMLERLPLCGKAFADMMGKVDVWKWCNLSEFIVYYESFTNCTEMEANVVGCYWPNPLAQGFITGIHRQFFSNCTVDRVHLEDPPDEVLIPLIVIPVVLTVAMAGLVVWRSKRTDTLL

| Binder | hAmylin-R funct. EC50 | Ratio hCT/hAmylin funct. |
| --- | --- | --- |
| B1 | 0.037 nM |  |
| B2 | 0.405 nM | 41.6 |
| B3 | 0.145 nM |  |
| B4 | 0.242 nM |  |
| B5 | 0.351 nM |  |
| B6 | 0.161 nM | 24.5 |

Each binder was assayed against T2, human calcitonin receptor (human, UniProt P30988 25-474) (assay: cell-based or functional assay).
T2 sequence (looked up): T1 sequence (looked up) 1

| Binder | hCTR funct. EC50 |
| --- | --- |
| B1 | 5.13 nM |
| B2 | 16.8 nM |
| B3 | 5.4 nM |
| B4 | 9.33 nM |
| B5 | 5.36 nM |
| B6 | 3.94 nM |
